Assay results from patent US20260132208A1 (DOMAIN THERAPEUTICS, published 2026).
Where “and” joins values, the source holds several entries; their conditions need not be identical. Identical values can stand only once.

Assays:
human CCR8 [1] = target: T1, human CCR8 (human, UniProt P51685 1-355); assay: cell-based or functional assay
human CCR8 [2] = target: T1, human CCR8; assay: cell-based or functional assay; remark: listed apart in the source
human CCR8 [3] = target: T1, human CCR8; assay: cell-based or functional assay; remark: listed apart in the source
human CCR8 [4] = target: T1, human CCR8; assay: cell-based or functional assay; remark: listed apart in the source
pm3 = target: T2, pm3 (Y17 sulfated; Y15 and Y16 not sulfated); assay: ELISA on coated peptide [cont.]
T2 construct: also called sulfated CCR8 N-terminal peptide pm3
T2 sequence (peptide, as listed by the source): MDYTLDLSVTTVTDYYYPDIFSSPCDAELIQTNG
Method: (§1) The specific binding properties of antibodies were evaluated by ELISA with coated CCR8 related peptides (500 ng/ml) in carbonate/bicarbonate buffer. Different peptides were used as described in Table 1 (see Example 1). Each anti-CCR8 mAb was tested at 1 μg/mL then diluted at 1/10. After an incubation at room temperature during 90 min, unbound mAbs were removed by washings. […] After washings, 3,3′,5,5′-tetramethylbenzidine (TMB) (Interchim, Montluçon, France) was added for 15 min. Then the optical density (OD) was determined by using a multiplate reader (Tecan, Lyon, France) and correlated with mAb reactivity on the panel of coated peptides.

pm5 = target: T3, pm5 (Y15 and Y17 sulfated; Y16 not sulfated); assay: ELISA on coated peptide [cont.]
T3 construct: also called sulfated CCR8 N-terminal peptide pm5
T3 sequence (peptide, as listed by the source): as above
Method: as §1

pm6 = target: T4, pm6 (Y16 and Y17 sulfated; Y15 not sulfated); assay: ELISA on coated peptide [cont.]
T4 construct: also called sulfated CCR8 N-terminal peptide pm6
T4 sequence (peptide, as listed by the source): as above
Method: as §1

pm8 = target: T5, pm8 (Y15, Y16 and Y17 sulfated); assay: ELISA on coated peptide [cont.]
T5 construct: also called sulfated CCR8 N-terminal peptide pm8
T5 sequence (peptide, as listed by the source): as above
Method: as §1

human CCR8 [5] = target: T1, human CCR8; assay: flow cytometry, hCCR8-transfected CHO-K1 cells
Method: Briefly, 1.10⁵ cells per well in a 96 well plate were incubated with a dilution of unconjugated anti-CCR8 mAb at 10 μg/mL then diluted at 1/3.33, 4 dilution points (during 30 min at 4° C.). In human activated T cells model, prior to mAb incubation, cells were first incubated with 200 nM of hCCL1 (R&D Systems, Minneapolis, MN, USA) or buffer PBS (Invitrogen by Thermofisher Scientific, Illkirch-Graffenstaden, France) supplemented by 2% Fetal Bovine Serum (Invitrogen by Thermofisher Scientific, Illkirch-Graffenstaden, France) and 2 mM EDTA (Invitrogen by Thermofisher Scientific, Illkirch-Graffenstaden, France) during 1 hour at 4° C. To determine EC50 value, 8 concentrations of anti-CCR8 mAb were tested. Unbound antibodies were washed away with PBS (Invitrogen by Thermofisher Scientific, Illkirch-Graffenstaden, France) supplemented by 2% Fetal Bovine Serum (Invitrogen by Thermofisher Scientific, Illkirch-Graffenstaden, France) and 2 mM EDTA (Invitrogen by Thermofisher Scientific, Illkirch-Graffenstaden, France). Subsequently, cells are centrifuged (5 min at 400 g) and bound antibody is detected with F(ab′)2-Goat anti-Mouse IgG (H+L) Cross-Adsorbed Secondary Antibody, Alexa Fluor 488 (dilution 1/500) (Invitrogen by Thermofisher Scientific, Illkirch-Graffenstaden, France) or with F(ab′)₂-Goat anti-Human IgG Fc Secondary Antibody, PE (Invitrogen by Thermofisher Scientific, Illkirch-Graffenstaden, France) (dilution 1/1000) at 4° C. for 30 min. Detection reagent is washed away and cells are centrifuged (5 min at 400 g) and resuspended in 30 μL PBS. Bound detection antibody is quantified on a MacsQuant16 (Miltenyi, Gladbach, Germany) (B1 or B2 channel, 5000 events per acquisition). During the experiment, the respective isotype mAb controls (mouse IgG1, mouse IgG2a, mouse IgG2b, mouse IgG3 or human IgG1) (Biolegend, Amsterdam, The Netherlands) are included to exclude any unspecific binding events. EC50 values were determined via nonlinear fit “log (agonist) vs.response—Variable slope (four parameters)” function of Graphpad prism. EC50 values were not constantly determined in the same experiments.

human CCR8 [6] = target: T1, human CCR8; assay: flow cytometry, inhibition of hCCL1-AF647 (10 nM) binding to hCCR8-CHO cells
Method: The hCCR8 transfected CHO cell line was dispatched at a density of 1.105 per well in a 96-well plate. Cells were incubated for 30 min at 4° C. with or without anti-CCR8 mAb tested at 10 μg/mL then diluted at 1/3. Unbound antibodies were washed away with PBS (Gibco, Villebon-sur-yvette, France) supplemented by 2% Fetal Bovine Serum (Invitrogen by Thermofisher Scientific, Illkirch-Graffenstaden, France) and 2 mM EDTA. […] After washing unbound ligands, CCL1 bound detection is quantified on a MacsQuant16 (Miltenyi, Gladbach, Germany) (R1 channel, 5 000 events per acquisition).
For IC₅₀ determination, a concentration response curve is performed using 8 concentrations of mAb. Curves are fitted and IC₅₀ of CCL1 binding blocking activity is calculated using the sigmoidal dose-response (variable slope) model on GraphPad Prism 9 (GraphPad Software, San Diego, CA, USA).

IC50 of CCL1-induced hCCR8 Gi2 signaling (BRET, HEK-293) (human CCR8 [1]) | residual hCCL1 (100 nM) Gi2 response, protocol #2, mAb 0.08 µg/mL (human CCR8 [2]) [%] | residual hCCL1 (100 nM) Gi2 response, protocol #2, mAb 0.4 µg/mL (human CCR8 [2]) [%] | residual hCCL1 (100 nM) Gi2 response, protocol #2, mAb 10 µg/mL (human CCR8 [2]) [%] | residual hCCL1 (100 nM) Gi2 response, protocol #3, mAb 0.05 µg/mL (human CCR8 [2]) [%] | residual hCCL1 (100 nM) Gi2 response, protocol #3, mAb 0.5 µg/mL (human CCR8 [2]) [%] | residual hCCL1 (100 nM) Gi2 response, protocol #3, mAb 5 µg/mL (human CCR8 [2]) [%] | extrapolated top plateau of hCCL1 curve with 5 µg/mL mAb, protocol #3 (human CCR8 [3]) | IC50 of CCL1-induced hCCR8 Gi2 signaling (BRET), pH 6.5 (human CCR8 [4]) | IC50 of CCL1-induced hCCR8 Gi2 signaling (BRET), pH 7.4 (human CCR8 [4]) | binding result (pm3) | binding result (pm5) | binding result (pm6) | binding result (pm8) | % positive cells (human CCR8 [5]) [%] | MFI fold change to isotype ctrl (human CCR8 [5]) [fold] | IC50 (human CCR8 [6]) | Binder
0.191 nM and 0.029 µg/mL | 60 | 36 | 19 | 74 | 68 | 48 | 640000 % of hCCL1 (100 nM) | 0.03 µg/ml and 0.198 nM | 0.031 µg/ml and 0.21 nM | binds | binds | binds | binds | 90.6 | 22.7 | 0.83 µg/mL and 5.55 nM | anti-CCR8 mAb 1-2 (antibody, V domains shown, Murine hybridoma mAb) VH: EVQLVESGGGLVQPKGSLKLSCAASGFTFNTYAMNWVRQAPGKGLEWVARIRSKSNNYATYYADSVKDRFTISRDDSQSMLYLQMNNLKTEDTAMYYCVRGREAYYRYDGGYYAMDYWGQGTSVTVSS VL: DIVMTQAAPSVPVTPGESVSISCRSSKSLLHSNGNTYLYWFLQRPGQSPQLLIYRMSNLASGVPDRFSGSGSGTAFTLRISRVEAEDVGVYYCMQHLEYPFTFGSGTKLEIK
0.031 µg/mL and 0.209 nM | 70 | 44 | 51 | 78 | 55 | 43 | 511000 % of hCCL1 (100 nM) | 0.053 µg/ml and 0.355 nM | 0.063 µg/ml and 0.421 nM | binds | binds | binds | binds | 68.5 | 5.12 | 2.55 µg/mL and 17.1 nM | anti-CCR8 mAb 1-8 (antibody, V domains shown, Murine hybridoma mAb) VH: EVQLVESGGGLVQPKGSLRLSCAASGFTFNAYAMNWVRQAPGKGLEWVARIRSKSNNYATYYGDSVKDRFTISRDDSQTMLYLQMNNLKTEDTAMYYCVRGREAYYRYDGDYYAMDYWGQGTSVTVSS VL: not shown
0.034 µg/mL and 0.227 nM | 72 | 49 | 28 | 75 | 36 | 22 | 313000 % of hCCL1 (100 nM) | 0.034 µg/ml and 0.225 nM | 0.065 µg/ml and 0.434 nM | binds | binds | binds | binds | 66.8 | 5.06 | 1.93 µg/mL and 12.9 nM | anti-CCR8 mAb 1-4 (antibody, V domains shown, Murine hybridoma mAb) VH: EVQLVESGGGLVQPTGSLRLSCAASGFTFNAYAMNWVRQAPGKGLEWVARIRSKSNDYATYYGDSVKDRFTISRDDSQSMLYLQMNNLKTEDTAMYYCVRGREAYYRYDGGYYAMDYWGQGTSVTVSS VL: DIVMTQAAPSVSVTPGESVSISCTSSKSLLHSNGNTYLYWFLQRPGQSPQLLIYRMSNLASGVPDRFSGSGSGTAFTLRISRVEAEDVGVYYCMQHREYPFTFGSGTKLEIK
0.023 µg/mL and 0.153 nM | 81 | 69 | 44 | 77 | 57 | 49 | 760000 % of hCCL1 (100 nM) | 0.021 µg/ml and 0.143 nM | 0.024 µg/ml and 0.163 nM | binds | binds | binds | binds | 72.8 | 6.32 | 1.02 µg/mL and 6.83 nM | anti-CCR8 mAb 1-1 (antibody, V domains shown, Murine hybridoma mAb) VH: EVQLLESGGGLVQPKGSLKLSCAASGFTFNPYAMNWVRQAPGRGLEWVARIRSKSNNYATYYADSVKDRFTISRDDSQDMLYLQMNNLKTEDTAMYYCVRGREAYYRYDGDYYAMDYWGQGTSVTVSS VL: DIVMTQAAPSVPVTPGESVSISCRSSKSLLHSNGNTYLYWFLQRPGQSPQLLIYRMSNLASGVPDRFSGSGSGTAFTLRISRVEAEDVGVYYCMQHLEYPFTFGSGTKLEIK
0.019 µg/mL and 0.129 nM | 99 | 102 | 95 | 102 | 97 | 67 | 135000 % of hCCL1 (100 nM) |  |  | binds | binds | binds | binds | 73.4 | 6.52 | 0.75 µg/mL and 5.01 nM | anti-CCR8 mAb 1-15 (antibody, V domains shown, Murine hybridoma mAb) VH: EVQLQQSGPELVKPGASVKISCKTSGYTFTEYTMHWVKQSHGKSLEWIGGINPNNGDTNYNQKFMGKATLTVDKSSSTAYMELRSLTSEDSAVYYCVRRLLRRGAMDYWGQGTSVTVSS VL: DIVLTQSPASLAVSLGQRATISCRASENVEYYGTSLMQWFQQKPGQPPKLLIYAASNVDSGVPARFSGSGSGTDFSLNIHPVEEDDIAMYFCQQSRKVPWTFGGGTKLDIK
